Among the data in patent US20140271457A1 (AbbVie / Abbott, published 2014) are Kd, koff and kon values, retold here.

This assay addresses Recombinant Human IL-13 (human, UniProt P35225 35-146, limits assumed). Nature of the assay: Biacore SPR. The procedure: The BIACORE assay (GE, Healthcare Piscataway, N.J.) determined the affinity of antibodies or DVD-Ig with kinetic measurements of on-rate and off-rate constants. Binding of antibodies or DVD-Ig proteins to a target antigen (for example, a purified recombinant target antigen) was determined by surface plasmon resonance-based measurements with a Biacore T200 using running HBS-EP+buffer from GE Healthcare at 25° C. All chemicals were obtained from GE Healthcare or otherwise from a different source as described in the text. For example, approximately 5000 RU of goat anti-mouse IgG, (Fcγ), fragment specific polyclonal antibody (Pierce Biotechnology Inc, Rockford, Ill.) diluted in 10 mM sodium acetate (pH 4.5) was directly immobilized across a CM5 research grade biosensor chip using a standard amine coupling kit according to manufacturer's instructions. Unreacted moieties on the biosensor surface were blocked with ethanolamine. Modified carboxymethyl dextran surface in flowcell 1 was used as a reference surface. Rate constants were derived by making kinetic binding measurements at different antigen concentrations ranging from 0.8-100 nM. Binding was recorded as a function of time and kinetic rate constants were calculated. In this assay, association rate was evaluated for 5 min and dissociation was monitored for 10 min. For kinetic screening analysis, rate equations derived from the 1:1 binding model were fitted simultaneously to association and dissociation phases of all injections (using global fit analysis with Rmax fit locally to account for capture variations) with the use of Biaevaluation software. Purified antibodies or DVD-Ig proteins were diluted in HEPES-buffered saline for capture across goat anti-mouse IgG specific reaction surfaces. Antibodies or DVD-Ig proteins to be captured as a ligand were injected over reaction matrices at a flow rate of 5 μl/minute. The association and dissociation rate constants, kₒₙ (M⁻¹ s⁻¹) and koff (s⁻¹) were determined under a continuous flow rate of 50 μl/minute. Rate constants were derived by making kinetic binding measurements at different antigen concentrations ranging from 0.8-100 nM. Binding was recorded as a function of time and kinetic rate constants were calculated. In this assay, association rate was evaluated for 5 min and dissociation was monitored for 10 min.
For orientation: SPR reads the build-up and loss of mass on a sensor chip optically.

Changes are numbered by the printed parent chain. Some results are limits rather than exact numbers.

Usually Kd stands for the concentration at which binding is half-saturated. One may read the koff as the rate constant with which the complex falls apart. The kon is the second-order rate constant of association.

Chain of Recombinant Human IL-13 (P35225 35-146 limits assumed): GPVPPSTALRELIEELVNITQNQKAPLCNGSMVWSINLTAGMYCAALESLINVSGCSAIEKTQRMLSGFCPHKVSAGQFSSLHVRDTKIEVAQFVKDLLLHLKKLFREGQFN

B1: DVD3113 (bispecific antibody, IgG1)
VH: EVQLVQSGAEVKKPGASVKVSCKASGYTFNNYGIIWVRQAPGQGLEWMGWINTYTGKPTYAQKFQGRVTMTTDTSTSTAYMELSSLRSEDTAVYYCARKLFNTVAVTDNAMDYWGQGTTVTVSSGGGGSGGGGSEVQLVQSGAEVKKPGASVKVSCKASGYTFTTYGVSWVRQAPGQGLEWMGEIYPGNYNTYYNEKFRGRVTMTTDTSTSTAYMELRSLRSDDTAVYYCARWRTSYFSDYGYFDYWGQGTTVTVSS
VL: DIQMTQSPSSLSASVGDRVTITCRASQDIENYLNWYQQKPGKAPKLLIYYTSRLQSGVPSRFSGSGSGTDFTLTISSLQPEDFATYFCQQGNTQPPTFGQGTKLEIKRGGSGGGGSGDVVMTQSPLSLPVTLGQPASISCRSSQSLVHSHGNTYLHWYQQRPGQSPRLLIYTVSNRFSGVPDRFSGSGSGTDFTLKISRVEAEDVGVYYCSQSTHVPYTFGGGTKVEIKR
notes: DVD-Ig; wt hIgG1 + kappa constants
As for B1, the Kd came to 0.015 nM, the koff worked out at 1.2e-06 s⁻¹ and the kon worked out at 75000 M⁻¹ s⁻¹.

B2: DVD3092 (bispecific antibody, IgG1)
VH: EVQLVQSGAEVKKPGASVKVSCKASGYTFTTYGVSWVRQAPGQGLEWMGEIYPGNYNTYYNEKFRGRVTMTTDTSTSTAYMELRSLRSDDTAVYYCARWRTSYFSDYGYFDYWGQGTTVTVSSASTKGPSVFPLAPEVQLVESGGGLVQPGGSLRLSCAASGFTFSNYGVTWVRQAPGKGLEWVSMIWADGSTHYASSVKGRFTISRDNSKNTLYLQMNSLRAEDTAVYYCAREWQHGPVAYWGQGTLVTVSS
VL: DVVMTQSPLSLPVTLGQPASISCRSSQSLVHSHGNTYLHWYQQRPGQSPRLLIYTVSNRFSGVPDRFSGSGSGTDFTLKISRVEAEDVGVYYCSQSTHVPYTFGGGTKVEIKRTVAAPDIQMTQSPSSLSASVGDRVTITCRASQLVSSAVAWYQQKPGKAPKLLIYWASARHTGVPSRFSGSGSGTDFTLTISSLQPEDFATYYCQQHYKTPFTFGQGTKLEIKR
notes: as for B1
Consider B2, for which the Kd worked out at 0.044 nM, the koff came out at 2.5e-05 s⁻¹ and the kon is 580000 M⁻¹ s⁻¹.

B3: DVD3084 (bispecific antibody, IgG1)
VH: EVQLVESGGGLVQPGGSLRLSCAASGFTFSNYGVTWVRQAPGKGLEWVSMIWADGSTHYASSVKGRFTISRDNSKNTLYLQMNSLRAEDTAVYYCAREWQHGPVAYWGQGTLVTVSSASTKGPEVQLVQSGAEVKKPGASVKVSCKASGYTFTTYGVSWVRQAPGQGLEWMGEIYPGNYNTYYNEKFRGRVTMTTDTSTSTAYMELRSLRSDDTAVYYCARWRTSYFSDYGYFDYWGQGTTVTVSS
VL: DIQMTQSPSSLSASVGDRVTITCRASQLVSSAVAWYQQKPGKAPKLLIYWASARHTGVPSRFSGSGSGTDFTLTISSLQPEDFATYYCQQHYKTPFTFGQGTKLEIKRTVAAPDVVMTQSPLSLPVTLGQPASISCRSSQSLVHSHGNTYLHWYQQRPGQSPRLLIYTVSNRFSGVPDRFSGSGSGTDFTLKISRVEAEDVGVYYCSQSTHVPYTFGGGTKVEIKR
notes: as for B1
For B3, the Kd came to 0.012 nM, the koff stood at 1.1e-06 s⁻¹ and the kon is 87000 M⁻¹ s⁻¹.

B4: DVD3086 (bispecific antibody, IgG1)
VH: B3 VH
VL: DIQMTQSPSSLSASVGDRVTITCRASQLVSSAVAWYQQKPGKAPKLLIYWASARHTGVPSRFSGSGSGTDFTLTISSLQPEDFATYYCQQHYKTPFTFGQGTKLEIKRTVAAPSVFIFPPDVVMTQSPLSLPVTLGQPASISCRSSQSLVHSHGNTYLHWYQQRPGQSPRLLIYTVSNRFSGVPDRFSGSGSGTDFTLKISRVEAEDVGVYYCSQSTHVPYTFGGGTKVEIKR
notes: as for B1
For the molecule B4, the Kd was less than 0.015 nM, the koff is less than 1e-06 s⁻¹ and the kon worked out at 65000 M⁻¹ s⁻¹.

B5: DVD3087 (bispecific antibody, IgG1)
VH: EVQLVESGGGLVQPGGSLRLSCAASGFTFSNYGVTWVRQAPGKGLEWVSMIWADGSTHYASSVKGRFTISRDNSKNTLYLQMNSLRAEDTAVYYCAREWQHGPVAYWGQGTLVTVSSASTKGPSVFPLAPEVQLVQSGAEVKKPGASVKVSCKASGYTFTTYGVSWVRQAPGQGLEWMGEIYPGNYNTYYNEKFRGRVTMTTDTSTSTAYMELRSLRSDDTAVYYCARWRTSYFSDYGYFDYWGQGTTVTVSS
VL: B3 VL
notes: as for B1
Regarding B5, the Kd is less than 0.02 nM, the koff was less than 1e-06 s⁻¹ and the kon turned out to be 51000 M⁻¹ s⁻¹.

B6: DVD3096 (bispecific antibody, IgG1)
VH: B3 VH with T35E, M50G, S61D, S62T, G65S
VL: B4 VL with R24K, A53T, R54L, K93R
notes: as for B1
For the molecule B6, the Kd was 0.00076 nM, the koff came to 5.3e-08 s⁻¹ and the kon is 70000 M⁻¹ s⁻¹.

B7: DVD3094 (bispecific antibody, IgG1)
VH: B3 VH with T35E, M50G, S61D, S62T, G65S
VL: B3 VL with R24K, A53T, R54L, K93R
notes: as for B1
As to B7, the dissociation constant (Kd) came out at 0.067 nM, the koff is 5.9e-06 s⁻¹ and the kon was 89000 M⁻¹ s⁻¹.

B8: DVD3097 (bispecific antibody, IgG1)
VH: B5 VH with T35E, M50G, S61D, S62T, G65S
VL: B3 VL with R24K, A53T, R54L, K93R
notes: as for B1
In the case of B8, the Kd was less than 0.021 nM, the koff is less than 1e-06 s⁻¹ and the kon is 48000 M⁻¹ s⁻¹.

B9: DVD3008 (bispecific antibody, IgG1)
VH: EVQLVQSGAEVKKPGASVKVSCKASGYTFNNYGIIWVRQAPGQGLEWMGWINTYTGKPTYAQKFQGRVTMTTDTSTSTAYMELSSLRSEDTAVYYCARKLFNTVAVTDNAMDYWGQGTTVTVSSGGGGSGGGGSEVTLRESGPGLVKPTQTLTLTCTLYGFSLSTSDMGVDWIRQPPGKGLEWLAHIWWDDVKRYNPALKSRLTISKDTSKNQVVLKLTSVDPVDTATYYCARTVSSGYIYYAMDYWGQGTLVTVSS
VL: DIQMTQSPSSLSASVGDRVTITCRASQDIENYLNWYQQKPGKAPKLLIYYTSRLQSGVPSRFSGSGSGTDFTLTISSLQPEDFATYFCQQGNTQPPTFGQGTKLEIKRGGSGGGGSGDIQMTQSPSSLSASVGDRVTISCRASQDIRNYLNWYQQKPGKAPKLLIFYTSKLHSGVPSRFSGSGSGTDYTLTISSLQPEDIATYYCQQGLTPPLTFGGGTKVEIKR
notes: as for B1
For the molecule B9, the Kd amounted to 0.14 nM, the koff was found to be 1.5e-05 s⁻¹ and the kon came to 110000 M⁻¹ s⁻¹.

B10: DVD3009 (bispecific antibody, IgG1)
VH: EVQLVQSGAEVKKPGASVKVSCKASGYTFNNYGIIWVRQAPGQGLEWMGWINTYTGKPTYAQKFQGRVTMTTDTSTSTAYMELSSLRSEDTAVYYCARKLFNTVAVTDNAMDYWGQGTTVTVSSASTKGPEVTLRESGPGLVKPTQTLTLTCTLYGFSLSTSDMGVDWIRQPPGKGLEWLAHIWWDDVKRYNPALKSRLTISKDTSKNQVVLKLTSVDPVDTATYYCARTVSSGYIYYAMDYWGQGTLVTVSS
VL: DIQMTQSPSSLSASVGDRVTITCRASQDIENYLNWYQQKPGKAPKLLIYYTSRLQSGVPSRFSGSGSGTDFTLTISSLQPEDFATYFCQQGNTQPPTFGQGTKLEIKRTVAAPDIQMTQSPSSLSASVGDRVTISCRASQDIRNYLNWYQQKPGKAPKLLIFYTSKLHSGVPSRFSGSGSGTDYTLTISSLQPEDIATYYCQQGLTPPLTFGGGTKVEIKR
notes: as for B1
With B10, the Kd is 0.36 nM, the koff was 3.2e-05 s⁻¹ and the kon came to 87000 M⁻¹ s⁻¹.

B11: DVD3083 (bispecific antibody, IgG1)
VH: EVQLVESGGGLVQPGGSLRLSCAASGFTFSNYGVTWVRQAPGKGLEWVSMIWADGSTHYASSVKGRFTISRDNSKNTLYLQMNSLRAEDTAVYYCAREWQHGPVAYWGQGTLVTVSSGGGGSGGGGSEVQLVQSGAEVKKPGASVKVSCKASGYTFTTYGVSWVRQAPGQGLEWMGEIYPGNYNTYYNEKFRGRVTMTTDTSTSTAYMELRSLRSDDTAVYYCARWRTSYFSDYGYFDYWGQGTTVTVSS
VL: DIQMTQSPSSLSASVGDRVTITCRASQLVSSAVAWYQQKPGKAPKLLIYWASARHTGVPSRFSGSGSGTDFTLTISSLQPEDFATYYCQQHYKTPFTFGQGTKLEIKRGGSGGGGSGDVVMTQSPLSLPVTLGQPASISCRSSQSLVHSHGNTYLHWYQQRPGQSPRLLIYTVSNRFSGVPDRFSGSGSGTDFTLKISRVEAEDVGVYYCSQSTHVPYTFGGGTKVEIKR
notes: as for B1
B11: the Kd was found to be 0.038 nM, the koff was 2e-06 s⁻¹ and the kon was 52000 M⁻¹ s⁻¹.

B12: DVD3093 (bispecific antibody, IgG1)
VH: B11 VH with T35E, M50G, S61D, S62T, G65S
VL: B11 VL with R24K, A53T, R54L, K93R
notes: as for B1
As to B12, the equilibrium dissociation constant (Kd) is less than 0.02 nM, the koff was less than 1e-06 s⁻¹ and the kon amounted to 51000 M⁻¹ s⁻¹.
